Data published in publication PMC4201290, “Wilms tumor protein recognizes 5-carboxylcytosine within a specific DNA sequence”.

B1: crystal oligo Egr1 5fC/5fC (dsDNA)
DNA 1: AGCGTGGGCGT
DNA 2: TACGCCCACGC
modifications: 5fC in both strands of the 3' GCG
B2: crystal oligo Egr1 5mC/5mC (dsDNA)
DNA 1: AGCGTGGGCGT
DNA 2: TACGCCCACGC
modifications: 5mC in both strands of the 3' GCG
B3: crystal oligo Egr1 5hmC/5hmC (dsDNA)
DNA 1: AGCGTGGGCGT
DNA 2: TACGCCCACGC
modifications: 5hmC in both strands of the 3' GCG

biological target: Egr1/Zif268 ZnF1-3 (Homo sapiens, UniProt P18146); test: X-ray crystallography; Zn2+; FP: 5 nM FAM-dsDNA, 300 mM NaCl (200 mM in Fig 4E), 20 mM Tris-HCl pH 7.5, 5% glycerol, 0.5 mM TCEP, 25 C, 10 min

Binding result, binds:
B1
B2
B3
